Assay results: patent US20200165344A1 (DRAGONFLY THERAPEUTICS, published 2020)

Legend:
Experiment in all cases: ELISA, NKG2D-Fc coated
[1] = target: T1, recombinant human NKG2D-Fc (human, UniProt P26718 73-216)
T1 construct: extracellular domain; also called human NKG2D-Fc fusion protein; NKG2D-Fc-biotin; not shown: human IgG1 Fc domain
T1 sequence (looked up): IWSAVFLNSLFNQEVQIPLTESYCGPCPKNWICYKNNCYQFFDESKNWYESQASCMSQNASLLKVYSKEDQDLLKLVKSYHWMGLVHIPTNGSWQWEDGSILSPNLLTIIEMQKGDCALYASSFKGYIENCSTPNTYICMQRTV

[2] = target: T2, recombinant cynomolgus NKG2D-Fc (cynomolgus; human, UniProt P61252 73-216)
T2 construct: extracellular domain; also called cynomolgus NKG2D-Fc fusion protein; not shown: human IgG1 Fc domain
T2 sequence (looked up): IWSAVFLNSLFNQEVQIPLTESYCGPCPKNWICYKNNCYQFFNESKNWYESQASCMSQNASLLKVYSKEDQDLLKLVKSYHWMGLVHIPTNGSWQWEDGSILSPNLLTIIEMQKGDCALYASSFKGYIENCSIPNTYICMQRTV

[3] = target: T3, recombinant mouse NKG2D-Fc (mouse; human, UniProt O54709 90-232)
T3 construct: extracellular domain; also called mouse NKG2D-Fc fusion protein; Mouse NKG2D-Fc-biotin; not shown: human IgG1 Fc domain
T3 sequence (looked up): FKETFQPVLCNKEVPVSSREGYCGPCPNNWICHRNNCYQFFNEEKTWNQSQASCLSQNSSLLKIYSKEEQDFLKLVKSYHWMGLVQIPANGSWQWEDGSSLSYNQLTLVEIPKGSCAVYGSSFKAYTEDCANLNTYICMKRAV

Measured: binding result

B1: ADI-27705 (antibody, V domains shown)
VH: QVQLQQWGAGLLKPSETLSLTCAVYGGSFSGYYWSWIRQPPGKGLEWIGEIDHSGSTNYNPSLKSRVTISVDTSKNQFSLKLSSVTAADTAVYYCARARGPWSFDPWGQGTLVTVSS
VL: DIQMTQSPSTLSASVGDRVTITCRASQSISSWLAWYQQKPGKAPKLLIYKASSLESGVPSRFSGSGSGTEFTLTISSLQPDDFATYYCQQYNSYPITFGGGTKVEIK
binds: [1] | [2] | [3]

B2: ADI-29403 (antibody, V domains shown)
VH: QVQLQQWGAGLLKPSETLSLTCAVYGGSFSGYYWSWIRQPPGKGLEWIGEIDHSGSTNYNPSLKSRVTISVDTSKNQFSLKLSSVTAADTAVYYCARARGPWSFDPWGQGTLVTVSS
VL: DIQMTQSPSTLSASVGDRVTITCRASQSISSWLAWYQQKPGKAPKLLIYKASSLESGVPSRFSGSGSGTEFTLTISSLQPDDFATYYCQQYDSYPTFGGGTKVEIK
binds: [1] | [2] | [3]

B3: ADI-27741 (antibody, V domains shown)
VH: QVQLQQWGAGLLKPSETLSLTCAVYGGSFSGYYWSWIRQPPGKGLEWIGEIDHSGSTNYNPSLKSRVTISVDTSKNQFSLKLSSVTAADTAVYYCARARGPWSFDPWGQGTLVTVSS
VL: DIQMTQSPSTLSASVGDRVTITCRASQSIGSWLAWYQQKPGKAPKLLIYKASSLESGVPSRFSGSGSGTEFTLTISSLQPDDFATYYCQQSNSYYTFGGGTKVEIK
binds: [1] | [2] | [3]

B4: ADI-28226 (antibody, V domains shown)
VH: QVQLQQWGAGLLKPSETLSLTCAVYGGSFSGYYWSWIRQPPGKGLEWIGEIDHSGSTNYNPSLKSRVTISVDTSKNQFSLKLSSVTAADTAVYYCARARGPWSFDPWGQGTLVTVSS
VL: DIQMTQSPSTLSASVGDRVTITCRASQSISSWLAWYQQKPGKAPKLLIYKASSLESGVPSRFSGSGSGTEFTLTISSLQPDDFATYYCQQYGSFPITFGGGTKVEIK
notes: also called C26
binds: [1] | [2] | [3]

B5: ADI-29407 (antibody, V domains shown)
VH: QVQLQQWGAGLLKPSETLSLTCAVYGGSFSGYYWSWIRQPPGKGLEWIGEIDHSGSTNYNPSLKSRVTISVDTSKNQFSLKLSSVTAADTAVYYCARARGPWSFDPWGQGTLVTVSS
VL: DIQMTQSPSTLSASVGDRVTITCRASQSISSWLAWYQQKPGKAPKLLIYKASSLESGVPSRFSGSGSGTEFTLTISSLQPDDFATYYCQQYQSFPTFGGGTKVEIK
binds: [1] | [2] | [3]

B6: ADI-29421 (antibody, V domains shown)
VH: QVQLQQWGAGLLKPSETLSLTCAVYGGSFSGYYWSWIRQPPGKGLEWIGEIDHSGSTNYNPSLKSRVTISVDTSKNQFSLKLSSVTAADTAVYYCARARGPWSFDPWGQGTLVTVSS
VL: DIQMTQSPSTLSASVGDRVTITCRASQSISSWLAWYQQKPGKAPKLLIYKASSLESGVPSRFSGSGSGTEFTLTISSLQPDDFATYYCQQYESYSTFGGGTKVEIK
binds: [1] | [2] | [3]

B7: ADI-29399 (antibody, V domains shown)
VH: QVQLQQWGAGLLKPSETLSLTCAVYGGSFSGYYWSWIRQPPGKGLEWIGEIDHSGSTNYNPSLKSRVTISVDTSKNQFSLKLSSVTAADTAVYYCARARGPWSFDPWGQGTLVTVSS
VL: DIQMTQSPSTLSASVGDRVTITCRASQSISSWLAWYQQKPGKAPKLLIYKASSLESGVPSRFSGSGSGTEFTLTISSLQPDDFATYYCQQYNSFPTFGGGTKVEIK
binds: [1] | [2] | [3]

B8: ADI-27740 (antibody, V domains shown)
VH: QVQLQQWGAGLLKPSETLSLTCAVYGGSFSGYYWSWIRQPPGKGLEWIGEIDHSGSTNYNPSLKSRVTISVDTSKNQFSLKLSSVTAADTAVYYCARARGPWSFDPWGQGTLVTVSS
VL: DIQMTQSPSTLSASVGDRVTITCRASQSIGSWLAWYQQKPGKAPKLLIYKASSLESGVPSRFSGSGSGTEFTLTISSLQPDDFATYYCQQYHSFYTFGGGTKVEIK
notes: also called A40
binds: [1] | [2] | [3]

B9: ADI-29419 (antibody, V domains shown)
VH: QVQLQQWGAGLLKPSETLSLTCAVYGGSFSGYYWSWIRQPPGKGLEWIGEIDHSGSTNYNPSLKSRVTISVDTSKNQFSLKLSSVTAADTAVYYCARARGPWSFDPWGQGTLVTVSS
VL: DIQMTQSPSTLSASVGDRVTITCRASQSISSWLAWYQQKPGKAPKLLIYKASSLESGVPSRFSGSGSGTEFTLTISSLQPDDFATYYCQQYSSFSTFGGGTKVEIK
binds: [1] | [2] | [3]

B10: ADI-27743 (antibody, V domains shown)
VH: QVQLQQWGAGLLKPSETLSLTCAVYGGSFSGYYWSWIRQPPGKGLEWIGEIDHSGSTNYNPSLKSRVTISVDTSKNQFSLKLSSVTAADTAVYYCARARGPWSFDPWGQGTLVTVSS
VL: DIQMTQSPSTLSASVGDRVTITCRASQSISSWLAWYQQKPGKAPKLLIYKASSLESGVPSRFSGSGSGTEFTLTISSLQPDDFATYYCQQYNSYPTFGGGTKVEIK
binds: [1] | [2] | [3]

B11: ADI-29429 (antibody, V domains shown)
VH: QVQLQQWGAGLLKPSETLSLTCAVYGGSFSGYYWSWIRQPPGKGLEWIGEIDHSGSTNYNPSLKSRVTISVDTSKNQFSLKLSSVTAADTAVYYCARARGPWSFDPWGQGTLVTVSS
VL: DIQMTQSPSTLSASVGDRVTITCRASQSIGSWLAWYQQKPGKAPKLLIYKASSLESGVPSRFSGSGSGTEFTLTISSLQPDDFATYYCQQYELYSYTFGGGTKVEIK
binds: [1] | [2] | [3]

B12: ADI-29404 (antibody, V domains shown)
VH: QVQLQQWGAGLLKPSETLSLTCAVYGGSFSGYYWSWIRQPPGKGLEWIGEIDHSGSTNYNPSLKSRVTISVDTSKNQFSLKLSSVTAADTAVYYCARARGPWSFDPWGQGTLVTVSS
VL: DIQMTQSPSTLSASVGDRVTITCRASQSISSWLAWYQQKPGKAPKLLIYKASSLESGVPSRFSGSGSGTEFTLTISSLQPDDFATYYCEQYDSYPTFGGGTKVEIK
notes: also called F04
binds: [1] | [2] | [3]

B13: ADI-29405 (antibody, V domains shown)
VH: QVQLQQWGAGLLKPSETLSLTCAVYGGSFSGYYWSWIRQPPGKGLEWIGEIDHSGSTNYNPSLKSRVTISVDTSKNQFSLKLSSVTAADTAVYYCARARGPWSFDPWGQGTLVTVSS
VL: DIQMTQSPSTLSASVGDRVTITCRASQSISSWLAWYQQKPGKAPKLLIYKASSLESGVPSRFSGSGSGTEFTLTISSLQPDDFATYYCQQYGSFPTFGGGTKVEIK
binds: [1] | [2] | [3]

B14: ADI-29401 (antibody, V domains shown)
VH: QVQLQQWGAGLLKPSETLSLTCAVYGGSFSGYYWSWIRQPPGKGLEWIGEIDHSGSTNYNPSLKSRVTISVDTSKNQFSLKLSSVTAADTAVYYCARARGPWSFDPWGQGTLVTVSS
VL: DIQMTQSPSTLSASVGDRVTITCRASQSIGSWLAWYQQKPGKAPKLLIYKASSLESGVPSRFSGSGSGTEFTLTISSLQPDDFATYYCQQYDIYPTFGGGTKVEIK
binds: [1] | [2] | [3]
